Positions of bridges follow the written chain, without caps; N, C: chain ends. No end group written: not given here.
Target: T1, sNUCB1 (N-terminally truncated human NUCB1, deletion of residues 1-31) (Homo sapiens, UniProt Q02818 32-461)
T1 construct: Expressed in E. coli; also called Calnuc; Ca2+ free NUCB1
T1 sequence: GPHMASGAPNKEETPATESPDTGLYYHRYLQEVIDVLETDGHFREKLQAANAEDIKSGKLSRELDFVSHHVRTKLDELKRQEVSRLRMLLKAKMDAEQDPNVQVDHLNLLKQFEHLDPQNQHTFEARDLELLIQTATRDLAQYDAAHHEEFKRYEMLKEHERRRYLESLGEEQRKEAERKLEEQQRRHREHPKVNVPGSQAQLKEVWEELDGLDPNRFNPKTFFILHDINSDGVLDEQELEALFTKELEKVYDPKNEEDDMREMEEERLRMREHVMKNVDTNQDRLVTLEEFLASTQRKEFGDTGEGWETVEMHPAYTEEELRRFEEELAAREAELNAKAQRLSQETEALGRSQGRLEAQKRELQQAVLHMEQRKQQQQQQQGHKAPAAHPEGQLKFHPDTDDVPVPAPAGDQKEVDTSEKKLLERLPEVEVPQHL
Assay: inferred from TEM of Amylin fibrillization with Ca2+ free NUCB1 added 1:1 at t=0, 2, 7 and 15 min
Description: Aggregation of Amylin involves an initial lag phase, which is associated with the formation of a nucleus. This nucleation phase is followed by the growth phase where monomers/oligomers add on to the nucleus converting the protofibrillar species into mature fibrils (Merlini and Bellotti, N. Engl. J. Med. 349, 583-596, 2003). Inhibitors of amyloidogenesis, known to date, either prolong the lag phase or slow down the growth phase. […] In the second reaction, Amylin oligomerization was allowed to proceed for 2 min into the reaction after which equimolar amount of NUCB1 was added. […] In the third reaction, NUCB1 was added after the nucleation phase of Amylin aggregation was complete (t=7 min). […] In the fourth experiment, the fibrillization reaction was allowed to proceed to the growth phase and NUCB1 was added during the elongation phase (t=1 5 min). […] This summarizes and supports the observation that Ca2+ free NUCB1 can inhibit the aggregation of Amylin at any stage during the fibrillization reaction.

B1: Wild type human IAPP (Amylin) (peptide, UniProt P10997 34-70, looked up)
peptide: KCNTATCATQRLANFLVHSSNNFGAILSSTNVGSNTY-NH2
modifications: disulfide 2-7 (inferred)
notes: mature; Present in the assays as monomers, oligomers, protofibrils or mature fibrils, depending on the time of addition; also called hIAPP; Amylin peptide
B1: binds.
